Reference: the supplement of paper PMC10065799, “High-throughput profiling of sequence recognition by tyrosine kinases and SH2 domains using bacterial peptide display” (eLife, 2023)

Each sequence was assayed against SHP2-C SH2 (assay: SH2 binding enrichment of the phosphorylated peptide, bacterial display (enrichment ratio); higher = better substrate or ligand; peptides without Tyr show the background).
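For SH2 binding enrichment of the phosphorylated peptide, bacterial display in this document: peptide library displayed on the E. coli surface as eCPX fusions, selected cells deep-sequenced, score is each peptide's frequency after selection divided by its frequency in the input.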
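For phosphorylation enrichment, bacterial display in this document: 11-residue human phosphosite peptides and single-mutation variants displayed on the E. coli surface, counted by deep sequencing, each peptide's frequency after selection divided by its frequency in the unselected input library; frequency after pTyr selection over input frequency; kinase dosed for 20-30% of maximal phosphorylation in three min.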

Compared with SVVVPYEQPEV [TP53_Y220_P222Q], SQAPGYSYTAA [CYCS_Y47_G42S] is lower in SH2 binding enrichment: 0.856 for the first, 0.631 for the second.

First: ERMKVYVPTGF [EPHX1_Y393]
Second: QQIYTYDSGIH [JUP_Y22_T19I]
The SH2 binding enrichment of the first is lower: 0.768 for the first, 0.834 for the second.

Going from YLAATYPTLGQ [NF1_Y2508_V2511L] to HILRVYGGVLP [PCNX4_Y999], the SH2 binding enrichment rises from 0.859 to 1.01.

Compared with LMFPDYLPCSV [SAG_Y129_T125M], ISRDVYSTDFF [NTRK2_Y702_M697I_YF] is higher in SH2 binding enrichment: 0.704 for the first, 0.715 for the second.

First: ITLKGYNLSKS [GNPTAB_Y728]
Second: RRNTCYASIAK [ACADM_Y353_Y352C]
The SH2 binding enrichment of the first is lower: 0.484 for the first, 7.11 for the second.

Compared with EGQKIYIDDNS [PIP4K2A_Y246_N251S], HDRNTYEKFLG [TF_Y666_YF] is higher in SH2 binding enrichment: 0.656 for the first, 0.797 for the second.

First: NPSYNYEIVNR [DYNC1H1_Y3379]
Second: LDPDSYNMFEN [FOXC1_Y159]
The SH2 binding enrichment of the first is higher: 0.602 for the first, 0.504 for the second.

Compared with KGRGEYSAIKA [PRKCD_Y374_F375S], FRNKPYISWPS [CDC42BPB_Y1638_S1633Y_YF] is higher in SH2 binding enrichment: 0.933 for the first, 1.77 for the second.

Going from TGQEDYDRLRP [RAC1_Y64_A59T] to RYLYYYSYLLK [PTEN_Y178_V175L], the SH2 binding enrichment rises from 0.746 to 1.57.

First: DPHECYAEVFD [ALB_Y394_K396E]
Second: LSVEIYDRREY [ITGB7_Y753]
The SH2 binding enrichment of the first is higher: 0.954 for the first, 0.437 for the second.

First: SVTCKYSPALN [TP53_Y126_T125K]
Second: ETMNKYHLSGR [MYEF2_Y164_D165H]
The SH2 binding enrichment of the first is higher: 0.654 for the first, 0.627 for the second.

Compared with PIMSFYAALID [RYR1_Y2426_A2421P], ELANLYHHVWM [BICD2_Y538_C542W] is higher in SH2 binding enrichment: 0.585 for the first, 0.835 for the second.

First: LGQRIYQFIQS [DYRK1B_Y271_YF]
Second: GTPVMYTFDEF [COL10A1_Y623_YF]
The SH2 binding enrichment of the first is higher: 1.33 for the first, 0.693 for the second.

First: CGTPEYLAPEI [PRKACA_Y205]
Second: SNTFLYQLVFD [EXO1_Y284_N279S]
The SH2 binding enrichment of the first is lower: 0.586 for the first, 1.05 for the second.

Going from QWRTKYETDAI [MYH7_Y1375] to VPDANYTSDEE [STK33_Y439], the SH2 binding enrichment rises from 0.521 to 1.11.

First: SHNELYFEEAE [VANGL1_Y344_YF]
Second: ASENVYVNTAH [CTSC_Y150_I153T]
The SH2 binding enrichment of the first is lower: 0.71 for the first, 1.12 for the second.

In the case of SGIFQYSIAKF [FOXL2_Y83_I84S_YF], the SH2 binding enrichment is reported as 1.5.

The sequences below were run against c-Src SH2 in the same assay as above.

First: SVVVPYEQPEV [TP53_Y220_P222Q]
Second: SQAPGYSYTAA [CYCS_Y47_G42S]
The SH2 binding enrichment of the first is higher: 3.08 for the first, 1.07 for the second.

Going from ERMKVYVPTGF [EPHX1_Y393] to QQIYTYDSGIH [JUP_Y22_T19I], the SH2 binding enrichment rises from 0.56 to 0.666.

Going from YLAATYPTLGQ [NF1_Y2508_V2511L] to HILRVYGGVLP [PCNX4_Y999], the SH2 binding enrichment falls from 0.764 to 0.635.

First: LMFPDYLPCSV [SAG_Y129_T125M]
Second: ISRDVYSTDFF [NTRK2_Y702_M697I_YF]
The SH2 binding enrichment of the first is higher: 0.57 for the first, 0.505 for the second.

Compared with ITLKGYNLSKS [GNPTAB_Y728], RRNTCYASIAK [ACADM_Y353_Y352C] is higher in SH2 binding enrichment: 0.321 for the first, 3.02 for the second.

Compared with EGQKIYIDDNS [PIP4K2A_Y246_N251S], HDRNTYEKFLG [TF_Y666_YF] is higher in SH2 binding enrichment: 0.538 for the first, 0.882 for the second.

First: NPSYNYEIVNR [DYNC1H1_Y3379]
Second: LDPDSYNMFEN [FOXC1_Y159]
The SH2 binding enrichment of the first is higher: 0.82 for the first, 0.575 for the second.

Compared with KGRGEYSAIKA [PRKCD_Y374_F375S], FRNKPYISWPS [CDC42BPB_Y1638_S1633Y_YF] is lower in SH2 binding enrichment: 1.81 for the first, 1.6 for the second.

Going from TGQEDYDRLRP [RAC1_Y64_A59T] to RYLYYYSYLLK [PTEN_Y178_V175L], the SH2 binding enrichment rises from 0.528 to 0.966.

Compared with DPHECYAEVFD [ALB_Y394_K396E], LSVEIYDRREY [ITGB7_Y753] is lower in SH2 binding enrichment: 1.23 for the first, 0.523 for the second.

Compared with SVTCKYSPALN [TP53_Y126_T125K], ETMNKYHLSGR [MYEF2_Y164_D165H] is higher in SH2 binding enrichment: 0.363 for the first, 0.426 for the second.

Going from PIMSFYAALID [RYR1_Y2426_A2421P] to ELANLYHHVWM [BICD2_Y538_C542W], the SH2 binding enrichment rises from 0.571 to 0.816.

Going from LGQRIYQFIQS [DYRK1B_Y271_YF] to GTPVMYTFDEF [COL10A1_Y623_YF], the SH2 binding enrichment falls from 2.23 to 0.662.

Going from CGTPEYLAPEI [PRKACA_Y205] to SNTFLYQLVFD [EXO1_Y284_N279S], the SH2 binding enrichment rises from 0.421 to 0.833.

Compared with QWRTKYETDAI [MYH7_Y1375], VPDANYTSDEE [STK33_Y439] is higher in SH2 binding enrichment: 0.542 for the first, 0.726 for the second.

First: SHNELYFEEAE [VANGL1_Y344_YF]
Second: ASENVYVNTAH [CTSC_Y150_I153T]
The SH2 binding enrichment of the first is lower: 0.46 for the first, 1.27 for the second.

SGIFQYSIAKF [FOXL2_Y83_I84S_YF] showed an SH2 binding enrichment of 1.11.

The sequences below were run against Grb2 SH2 (UniProt P62993) in the same assay as above.
Chain of Grb2 SH2 (P62993 whole entry, looked up): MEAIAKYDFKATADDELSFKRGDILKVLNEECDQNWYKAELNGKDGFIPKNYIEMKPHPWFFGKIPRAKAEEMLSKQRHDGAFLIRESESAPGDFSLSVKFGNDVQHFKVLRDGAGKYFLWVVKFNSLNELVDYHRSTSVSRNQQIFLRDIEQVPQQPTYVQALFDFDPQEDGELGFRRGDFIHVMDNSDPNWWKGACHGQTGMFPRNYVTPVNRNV

First: SVVVPYEQPEV [TP53_Y220_P222Q]
Second: SQAPGYSYTAA [CYCS_Y47_G42S]
The SH2 binding enrichment of the first is higher: 0.962 for the first, 0.763 for the second.

Going from ERMKVYVPTGF [EPHX1_Y393] to QQIYTYDSGIH [JUP_Y22_T19I], the SH2 binding enrichment rises from 0.761 to 0.922.

Compared with YLAATYPTLGQ [NF1_Y2508_V2511L], HILRVYGGVLP [PCNX4_Y999] is higher in SH2 binding enrichment: 0.872 for the first, 0.913 for the second.

Compared with LMFPDYLPCSV [SAG_Y129_T125M], ISRDVYSTDFF [NTRK2_Y702_M697I_YF] is lower in SH2 binding enrichment: 0.921 for the first, 0.712 for the second.

Going from ITLKGYNLSKS [GNPTAB_Y728] to RRNTCYASIAK [ACADM_Y353_Y352C], the SH2 binding enrichment rises from 0.614 to 0.784.

First: EGQKIYIDDNS [PIP4K2A_Y246_N251S]
Second: HDRNTYEKFLG [TF_Y666_YF]
The SH2 binding enrichment of the first is lower: 0.661 for the first, 1.11 for the second.

Going from NPSYNYEIVNR [DYNC1H1_Y3379] to LDPDSYNMFEN [FOXC1_Y159], the SH2 binding enrichment falls from 0.675 to 0.667.

Compared with KGRGEYSAIKA [PRKCD_Y374_F375S], FRNKPYISWPS [CDC42BPB_Y1638_S1633Y_YF] is higher in SH2 binding enrichment: 0.974 for the first, 1.99 for the second.

First: TGQEDYDRLRP [RAC1_Y64_A59T]
Second: RYLYYYSYLLK [PTEN_Y178_V175L]
The SH2 binding enrichment of the first is lower: 0.74 for the first, 0.878 for the second.

Going from DPHECYAEVFD [ALB_Y394_K396E] to LSVEIYDRREY [ITGB7_Y753], the SH2 binding enrichment falls from 1.1 to 0.602.

Compared with SVTCKYSPALN [TP53_Y126_T125K], ETMNKYHLSGR [MYEF2_Y164_D165H] is lower in SH2 binding enrichment: 0.752 for the first, 0.667 for the second.

Compared with PIMSFYAALID [RYR1_Y2426_A2421P], ELANLYHHVWM [BICD2_Y538_C542W] is lower in SH2 binding enrichment: 0.969 for the first, 0.869 for the second.

Compared with LGQRIYQFIQS [DYRK1B_Y271_YF], GTPVMYTFDEF [COL10A1_Y623_YF] is lower in SH2 binding enrichment: 1.02 for the first, 0.89 for the second.

Compared with CGTPEYLAPEI [PRKACA_Y205], SNTFLYQLVFD [EXO1_Y284_N279S] is higher in SH2 binding enrichment: 0.87 for the first, 1.17 for the second.

First: QWRTKYETDAI [MYH7_Y1375]
Second: VPDANYTSDEE [STK33_Y439]
The SH2 binding enrichment of the first is lower: 0.849 for the first, 0.885 for the second.

Going from SHNELYFEEAE [VANGL1_Y344_YF] to ASENVYVNTAH [CTSC_Y150_I153T], the SH2 binding enrichment rises from 0.941 to 7.62.

SGIFQYSIAKF [FOXL2_Y83_I84S_YF] showed an SH2 binding enrichment of 0.947.

These sequences were tested against FGFR1 (UniProt P11362) (assay: phosphorylation enrichment, bacterial display (enrichment ratio); higher = better substrate or ligand; peptides without Tyr show the background).
Chain of FGFR1 (P11362 whole entry, looked up): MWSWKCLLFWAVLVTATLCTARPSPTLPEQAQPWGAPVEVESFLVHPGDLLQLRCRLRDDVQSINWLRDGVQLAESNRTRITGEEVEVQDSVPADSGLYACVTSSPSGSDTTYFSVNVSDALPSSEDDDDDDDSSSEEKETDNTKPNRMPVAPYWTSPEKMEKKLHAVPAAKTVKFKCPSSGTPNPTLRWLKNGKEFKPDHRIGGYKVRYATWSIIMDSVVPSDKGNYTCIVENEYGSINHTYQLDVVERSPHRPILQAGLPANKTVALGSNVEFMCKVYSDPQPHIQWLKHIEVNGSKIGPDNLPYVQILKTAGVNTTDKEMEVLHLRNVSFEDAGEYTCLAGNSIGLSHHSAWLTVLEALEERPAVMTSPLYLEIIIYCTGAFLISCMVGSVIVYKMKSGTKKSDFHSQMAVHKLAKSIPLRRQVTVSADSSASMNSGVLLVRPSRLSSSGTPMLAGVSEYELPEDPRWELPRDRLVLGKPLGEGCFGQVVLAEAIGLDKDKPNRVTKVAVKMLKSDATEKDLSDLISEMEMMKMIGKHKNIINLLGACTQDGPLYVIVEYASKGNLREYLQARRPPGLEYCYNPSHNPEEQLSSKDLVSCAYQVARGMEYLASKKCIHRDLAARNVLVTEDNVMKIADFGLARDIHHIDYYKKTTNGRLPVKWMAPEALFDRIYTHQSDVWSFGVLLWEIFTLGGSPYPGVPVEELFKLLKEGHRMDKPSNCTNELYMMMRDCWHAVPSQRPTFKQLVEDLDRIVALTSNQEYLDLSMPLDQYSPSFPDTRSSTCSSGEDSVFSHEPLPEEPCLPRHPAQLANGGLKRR

First: SVVVPYEQPEV [TP53_Y220_P222Q]
Second: SQAPGYSYTAA [CYCS_Y47_G42S]
The phosphorylation enrichment of the first is higher: 0.604 for the first, 0.593 for the second.

First: ERMKVYVPTGF [EPHX1_Y393]
Second: QQIYTYDSGIH [JUP_Y22_T19I]
The phosphorylation enrichment of the first is lower: 0.513 for the first, 1.86 for the second.

Compared with YLAATYPTLGQ [NF1_Y2508_V2511L], HILRVYGGVLP [PCNX4_Y999] is lower in phosphorylation enrichment: 0.824 for the first, 0.755 for the second.

Going from LMFPDYLPCSV [SAG_Y129_T125M] to ISRDVYSTDFF [NTRK2_Y702_M697I_YF], the phosphorylation enrichment falls from 7.55 to 0.934.

Compared with ITLKGYNLSKS [GNPTAB_Y728], RRNTCYASIAK [ACADM_Y353_Y352C] is lower in phosphorylation enrichment: 0.397 for the first, 0.272 for the second.

First: EGQKIYIDDNS [PIP4K2A_Y246_N251S]
Second: HDRNTYEKFLG [TF_Y666_YF]
The phosphorylation enrichment of the first is lower: 0.446 for the first, 0.484 for the second.

Compared with NPSYNYEIVNR [DYNC1H1_Y3379], LDPDSYNMFEN [FOXC1_Y159] is higher in phosphorylation enrichment: 0.552 for the first, 0.675 for the second.

First: KGRGEYSAIKA [PRKCD_Y374_F375S]
Second: FRNKPYISWPS [CDC42BPB_Y1638_S1633Y_YF]
The phosphorylation enrichment of the first is lower: 0.393 for the first, 0.408 for the second.

First: TGQEDYDRLRP [RAC1_Y64_A59T]
Second: RYLYYYSYLLK [PTEN_Y178_V175L]
The phosphorylation enrichment of the first is lower: 0.754 for the first, 3.1 for the second.

Going from DPHECYAEVFD [ALB_Y394_K396E] to LSVEIYDRREY [ITGB7_Y753], the phosphorylation enrichment falls from 1.2 to 0.618.

Compared with SVTCKYSPALN [TP53_Y126_T125K], ETMNKYHLSGR [MYEF2_Y164_D165H] is higher in phosphorylation enrichment: 0.429 for the first, 0.432 for the second.

Compared with PIMSFYAALID [RYR1_Y2426_A2421P], ELANLYHHVWM [BICD2_Y538_C542W] is higher in phosphorylation enrichment: 0.706 for the first, 6.38 for the second.

Compared with LGQRIYQFIQS [DYRK1B_Y271_YF], GTPVMYTFDEF [COL10A1_Y623_YF] is lower in phosphorylation enrichment: 2.23 for the first, 0.504 for the second.

Going from CGTPEYLAPEI [PRKACA_Y205] to SNTFLYQLVFD [EXO1_Y284_N279S], the phosphorylation enrichment rises from 0.718 to 1.69.

Compared with QWRTKYETDAI [MYH7_Y1375], VPDANYTSDEE [STK33_Y439] is higher in phosphorylation enrichment: 0.4 for the first, 0.699 for the second.

Compared with SHNELYFEEAE [VANGL1_Y344_YF], ASENVYVNTAH [CTSC_Y150_I153T] is lower in phosphorylation enrichment: 0.68 for the first, 0.633 for the second.

In the case of SGIFQYSIAKF [FOXL2_Y83_I84S_YF], the phosphorylation enrichment is reported as 0.64.
